± gives the standard deviation of the averaged measurements.
These sequences were tested on ATP (assay: switch fluorescence ratio, 500 uM ATP over buffer (Cy3 cluster intensity, sum of 5 cycles each) (fold (ratio)); higher = stronger signal-on switching upon ATP binding; sequences stand for … in TCGTCGGCAGCGTCAGATGTGTATAAGAGACAGTTTTTTTTTTTTTTTTTTTTTTTTT…TC). Details: aptamer strand: ATP DNA aptamer (quencher-CACCTGGGGGAGTATTGCGGAGGAAGG + anchor), 100 nM annealed; ATP concentration: 500 uM.
Outline: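 The quencher-labelled ATP aptamer, at 100 nM, was annealed to Cy3-labelled switching-strand clusters on a modified Illumina MiSeq flow-cell. The clusters were imaged in selection buffer, then after 15 min with 500 uM ATP at 22 °C, and this buffer/ATP cycle ran five times with NaOH stripping and re-annealing between runs. Per-cluster fluorescence ratios, summed target-cycle over summed buffer-cycle Cy3 intensity, were averaged per switch-domain sequence. Clusters outside 100-1000 RFU were excluded.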
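Further: ATP exposure 15 min at 22 °C before imaging.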

| Sequence | switch fluorescence ratio |
| --- | --- |
| GGCGTAATAT | 1.54 ± 0.085 |
| AAGCGCATTT | 1.05 ± 0.029 |
| TTTTACGTCA | 1.21 ± 0.073 |
| AGGAGGGGTT | 1.01 ± 0.037 |
| CGTGTATATC | 1.07 ± 0.028 |
| AAAAGTGGGG | 1.02 ± 0.019 |
| AAGGGTTTCT | 1.02 ± 0.038 |
| AAACGGACGC | 1.2 ± 0.023 |
| CGTTTAATAT | 1 ± 0.033 |
| TCAGGGGTT | 1.15 ± 0.12 |
| TTGCAAAACT | 1.32 ± 0.51 |
| ATTTACTAGA | 1.004 ± 0.0042 |
| TTTTAGTGTT | 1 ± 0.013 |
| CTTGTATTAC | 1.16 ± 0.024 |
| CATTTTTGTG | 0.9534 ± 0.0061 |
| CCTCTTTTTG | 1.02 ± 0.011 |
| TGTACTTTTT | 1.02 ± 0.022 |
| GATGGATTTG | 1.02 ± 0.033 |
| GAGTGGAGGC | 1.03 ± 0.05 |
| GCAGGGGCTG | 1.02 ± 0.016 |
| ATTCGTAGTG | 1.004 ± 0.0016 |
| TCAAGGGGGC | 0.9915 ± 0.0018 |
| GCCAGGGCTT | 1.03 ± 0.036 |
| TAAAATGCGT | 0.99954 ± 0.00034 |
| GGATTACTGG | 1.03 ± 0.023 |

| Sequence | switch fluorescence ratio |
| --- | --- |
| GGTGTTTGTA | 1.005 ± 0.0094 |
| AAATTTATGT | 0.972 ± 0.027 |
| TGTTTATGGT | 1.02 ± 0.017 |
| TTGCTGTGAG | 0.9762 ± 0.0012 |
| ACATTCTATT | 1.01 ± 0.021 |
| CGGGATGCGC | 1.04 ± 0.066 |
| TTGGTTTTTA | 0.98 ± 0.018 |
| AGGTTCGG | 0.9937 ± 0.0069 |
| TTCAGTTTTA | 1.017 ± 0.0035 |
| GCCAATGGTT | 1.08 ± 0.16 |
| GCCGTTCTTA | 1.05 ± 0.037 |
| TGCTCTACCT | 1.18 ± 0.057 |
| TTTAAATGCG | 0.985 ± 0.041 |
| GGCGGCTGAG | 1 ± 0.067 |
| GCATTAAGAA | 1.01 ± 0.018 |
| TGGGAAAGAA | 1.04 ± 0.068 |
| GATGGCATCG | 1.02 ± 0.014 |
| AATCGCTTTT | 1 ± 0.053 |
| TTTGGCAGGG | 0.996 ± 0.024 |
| CTATGATTGT | 0.977 ± 0.04 |
| TTAAGGGAAG | 1.02 ± 0.036 |
| TTGATTTCGT | 0.9998 ± 0.0024 |
| TATTTCAGTC | 1.01 ± 0.02 |
| TAAGAGGCGG | 1.01 ± 0.052 |
| TGCCGGGGGA | 1.01 ± 0.018 |

| Sequence | switch fluorescence ratio |
| --- | --- |
| CTAACGGACT | 1.16 ± 0.068 |
| GTGACCCGGA | 0.97057 ± 0.00025 |
| GCACACCGAG | 1.083 ± 0.0059 |
| TAGGCCGTTT | 1 ± 0.084 |
| AAAACCAGGG | 1.08 ± 0.033 |
| CTTGGTTCGA | 0.978 ± 0.026 |
| AGAAAAGTGG | 0.985 ± 0.019 |
| ATTAGAAAAA | 0.904 ± 0.019 |
| TCTCATTCTT | 1.03 ± 0.028 |
| AATGCTCGGC | 0.9646 ± 0.0092 |
| TTTCCTCAG | 1.3 ± 0.4 |
| CCTGGGGGTA | 1.04 ± 0.024 |
| CAAAAAAAAG | 1.03 ± 0.023 |
| TGTTGGAAGG | 1.01 ± 0.014 |
| TGGAGTTAGA | 0.996 ± 0.035 |
| CTAGGGCATG | 0.98 ± 0.016 |
| TGATGTAGAG | 0.99 ± 0.029 |
| AGGGGGGGAT | 0.982 ± 0.029 |
| TTACTGGGGT | 1.02 ± 0.021 |
| AGGATATTGG | 1.01 ± 0.02 |
| CGGTGGTGTG | 0.963 ± 0.048 |
| CACGGGGTTT | 0.954 ± 0.011 |
| CATGGTTTTT | 0.9989 ± 0.0082 |
| TATTTGGAAA | 0.991 ± 0.036 |
| GGTTAGAAGG | 0.96 ± 0.031 |

| Sequence | switch fluorescence ratio |
| --- | --- |
| TAAAGGTTAC | 1.03 ± 0.028 |
| AATTCGTGAA | 1.01 ± 0.013 |
| CCTATTTGTA | 0.974 ± 0.051 |
| AGCACCGGGT | 1.02 ± 0.018 |
| TAGTAAGGGC | 1.02 ± 0.033 |
| GGGGAAGGGA | 1 ± 0.031 |
| ATTCAGGGGG | 1.07 ± 0.028 |
| TTTAATCAAG | 0.951 ± 0.021 |
| TTTAACGAAT | 1.09 ± 0.099 |
| CGTTGCGCCA | 1.02 ± 0.013 |
| AGTAGGGGGG | 0.988 ± 0.033 |
| GGGGCGGCCC | 1.03 ± 0.049 |
| GAAAAGGTAA | 1.025 ± 0.0033 |
| GGGGGAACGG | 1.08 ± 0.1 |
| CGGGATATCG | 1.01 ± 0.029 |
| GTTCGTTAGC | 0.988 ± 0.004 |
| GTGATTGGGA | 0.963 ± 0.058 |
| ATGTGTAAAA | 0.99 ± 0.013 |
| GAGGTGCGGT | 0.975 ± 0.049 |
| TTTCAGGTTT | 0.983 ± 0.033 |
| AAGTTATGTA | 1.01 ± 0.031 |
| ATAATTGGGG | 0.98 ± 0.026 |
| ACAAAAATAG | 0.993 ± 0.04 |
| ATTGGGTTGG | 0.998 ± 0.019 |
| TTAGCCGGGT | 0.9802 ± 0.0028 |

| Sequence | switch fluorescence ratio |
| --- | --- |
| GTTAACGCGT | 1.02 ± 0.02 |
| TTAGACGCGG | 0.98 ± 0.036 |
| TAAAAGACCG | 1.077 ± 0.007 |
| CGGTTCTTGA | 0.995 ± 0.038 |
| CGGGTTAAT | 1 ± 0.041 |
| TCACTGGGTT | 1.01 ± 0.068 |
| GTTGTTATGG | 0.988 ± 0.017 |
| AGCGGCCTGG | 0.992 ± 0.014 |
| ATTTGTGTGT | 0.967 ± 0.036 |
| ACAAGGGAGA | 1.06 ± 0.012 |
| GTTACTGGAA | 1.04 ± 0.02 |
| CCCTTGATAC | 2.24 ± 0.1 |
| GGGGGCGGCA | 0.988 ± 0.042 |
| GCGGTTGTCC | 1.0001 ± 0.00078 |
| CGTGTTAATG | 0.989 ± 0.037 |
| TCGAGTCATT | 0.9913 ± 0.005 |
| GATTTTTGGC | 0.9945 ± 0.0087 |
| CGTTTAGGTG | 1.02 ± 0.038 |
| TCGGGGTCGT | 0.9859 ± 0.0065 |
| AAAGGTAGAG | 1.01 ± 0.04 |
| AAGATGCTTC | 1 ± 0.011 |
| AGCTGGGGTC | 0.9851 ± 0.0063 |
| TTGACGTGTG | 0.961 ± 0.01 |
| TTGGGTAGTG | 0.993 ± 0.031 |
| AGGCTCTAAG | 1.01 ± 0.011 |

| Sequence | switch fluorescence ratio |
| --- | --- |
| TGAACAAGGG | 0.962 ± 0.015 |
| AAATGGTGAT | 1.035 ± 0.0041 |
| GCGACAAGCT | 0.997 ± 0.015 |
| TCGGATGTCA | 0.965 ± 0.049 |
| GTTTTTTTTA | 0.989 ± 0.037 |
| ATGACGCGGA | 1.048 ± 0.0097 |
| TTTTTCACCG | 1.07 ± 0.079 |
| GCCGGCGCAC | 1.026 ± 0.0057 |
| AATGATATTG | 0.998 ± 0.032 |
| AACAAGTTAG | 1.01 ± 0.015 |
| TTTCGACACG | 0.989 ± 0.018 |
| GGCTTTGGCG | 1.01 ± 0.015 |
| AGAAACCGTT | 1.03 ± 0.021 |
| GAGGTGAGGG | 1 ± 0.057 |
| ATGGGGGATC | 1.008 ± 0.0082 |
| GGTTGCAGGG | 1.01 ± 0.011 |
| TCATGGGTTG | 0.981 ± 0.0053 |
| GGATTTACGC | 1.03 ± 0.03 |
| GCGGGAGGGG | 0.99 ± 0.054 |
| GAGGCGGATG | 0.997 ± 0.028 |
| CTGAGGGGTG | 1.01 ± 0.037 |
| GGGGTTAGAG | 0.991 ± 0.033 |
| CCGGGAGTTA | 1.15 ± 0.034 |
| TGGCAGAGGC | 1.04 ± 0.038 |
| TCGGATTGTG | 1.01 ± 0.021 |

| Sequence | switch fluorescence ratio |
| --- | --- |
| CAGTCCGGTC | 1.06 ± 0.014 |
| ACGGGCAGAG | 1.02 ± 0.013 |
| AAAATCGAGC | 1.02 ± 0.015 |
| AGACGGTTTG | 1.01 ± 0.017 |
| AACCGGGGGG | 0.994 ± 0.045 |
| TTTGGTAGTT | 0.987 ± 0.015 |
| TGATGAAAGA | 0.996 ± 0.021 |
| CGGACACGTT | 0.983 ± 0.052 |
| TTCGTAGAAA | 1.05 ± 0.032 |
| CCAGAGTGTT | 1.33 ± 0.04 |
| TTACGGCCGA | 1.02 ± 0.026 |
| TTCCGGGAGG | 0.993 ± 0.076 |
| TTTTACTTTT | 1.01 ± 0.037 |
| ACCTGATTAA | 1.01 ± 0.018 |
| TTTCTTTTCT | 1.02 ± 0.032 |
| CAGTAGAATT | 1.02 ± 0.023 |
| TATATGCCGT | 1.02 ± 0.066 |
| GCTCACTGTG | 1.037 ± 0.0034 |
| TAGATTGGTG | 0.991 ± 0.04 |
| CGTTACCGGA | 1.01 ± 0.029 |
| CATGGTTCGC | 0.985 ± 0.053 |
| CGCACGGGTC | 1.11 ± 0.038 |
| GGTTTAAGTC | 1.06 ± 0.029 |
| TAGTCATTAA | 1.002 ± 0.0028 |
| TCAGGGGAGG | 1.03 ± 0.036 |

| Sequence | switch fluorescence ratio |
| --- | --- |
| GTGGTTTGAC | 0.99 ± 0.013 |
| CAGTGGGGCA | 1.03 ± 0.053 |
| AGGTTTTTTG | 0.995 ± 0.016 |
| ATCTATTGGG | 0.991 ± 0.0066 |
| TTTTTGGCTA | 1 ± 0.021 |
| GGGAAGCATT | 0.989 ± 0.023 |
| TTTTACAAGT | 0.982 ± 0.03 |
| GCACATTATG | 0.985 ± 0.011 |
| TATATTCAGT | 1.02 ± 0.0099 |
| CCTGATCACC | 1.063 ± 0.0098 |
| TACCATGAAT | 1.01 ± 0.045 |
| TGCCGACGTA | 1.03 ± 0.017 |
| ACTTTGAA | 1.01 ± 0.037 |
| TGGTGGTTGT | 1.02 ± 0.012 |
| TAAGTGACCG | 1.07 ± 0.018 |
| GGTGCAGGGG | 1.11 ± 0.023 |
| ATGAAGATTA | 0.987 ± 0.043 |
| ATGTTATCGA | 1.008 ± 0.0074 |
| TGGTAGTTCG | 1.01 ± 0.046 |
| GGACTAGGGA | 1.01 ± 0.018 |
| GTTTGTTCGC | 0.997 ± 0.076 |
| TTGCGGGTGG | 1.01 ± 0.028 |
| TTAATTTCGG | 0.991 ± 0.065 |
| AAGGAAAGAT | 0.975 ± 0.04 |
| GTTAGGAGTC | 0.992 ± 0.018 |

Source: the supplement of paper PMC10126150
